Test results from publication PMC6877527, “Sugar-mediated regulation of a c-di-GMP phosphodiesterase in Vibrio cholerae” (Nature Communications, 2019).

Legend:
GST-PdeS (V. cholerae) = test: MST; NanoTemper Monolith NT.115pico; GST-PdeS labeled with NT-647 at 4.875 nM; unlabeled EIIA^Glc titrated in 1:1 serial dilutions from 21.9 uM; 25 mM HEPES-NaOH pH 7.6, 100 mM NaCl, 5 mM beta-mercaptoethanol, 0.5 mg/ml BSA, 0.05% Tween 20; 15% LED power, 30% MST power, 22 C
VC1710 (PdeS) = target: T1, VC1710 (PdeS) (Vibrio cholerae, UniProt Q9KRD2); test: biochemical
T1 construct: gene VC_1710

Compound	Kd (GST-PdeS (V. cholerae)) [nM]	Kd (VC1710 (PdeS)) [nM]
hexahistidine-tagged EIIA^Glc, phosphorylated form (natural protein)	287	–
Nc1nc2c(ncn2[C@@H]2O[C@@H]3CO[P@](=O)(O)O[C@H]4[C@@H](O)[C@H](n5cnc6c(=O)[nH]c(N)nc65)O[C@@H]4CO[P@](=O)(O)O[C@H]3[C@H]2O)c(=O)[nH]1 [c-di-GMP]	–	~8700
hexahistidine-tagged EIIA^Glc, dephosphorylated form (natural protein)	114	–
